From publication PMC10351726 (2023)
Where a chain is given by its changes, count along the chain named.

Target: HER2-ECD biotinylated at single site (human, UniProt P04626 23-652, biotinylated at single site)
Assay: SPR

B1: NanoMab-02 (NM-02) (VHH)
VHH: QVQLQESGGGSVQAGETLRLSCTASGFTFDDSDMGWYRQAPGNECELVSSISSDGSTYYADSVKGRFTISQDNAKNTVYLQMNSLKPEDTGVYYCAAEGHRYELGTCAALDYWGRGTQVTVSS
B1 gave a Kd of 0.183 nM.

B2: humanised NM-02 variant E (VHH)
VHH: B1 VHH with S11L, A14P, E16G, T17S, T23S, A74S, V78L, K86R, P87A, Q118L
B2 gave a Kd of 0.434 nM.
